Substitutions are numbered along the chain they refer to.
B1: E2B7: dGAE (391E) specific clone, Table 9; SEQ ID NO: 254 (protein)
scFv: QVQLQESGPSLVKPSQTLSLTCTVSGFSLTSWGVAWVRQAPGKALEWLGTMRSGGGTEYNPALKSRLSITRDTSKSQVSLSLSSVTTEDMAMYYCARGYLSGIHYAWGRGLLVSVSSEGKSSGASGESKVDDQAVLTQLSSVSGSLGQRVSITCSGSSSNVGDGDYVGWFQQLPGSAPKLLIYSARNRASGVPDRFSGSRSGNTATLTITSLQAEDEADYYCASIDTSRSHIFGSGTRLTVLG
modifications: E2B7 amino acid sequence
B2: E2A6: dGAE (391E) specific clone, Table 9; SEQ ID NO: 252 (protein)
scFv: QVQLQESGPSLVKPSQTLSLTCTVSGFSLTDWGVAWVRQAPGKALEWLGTMRSGGTTDDNPALKSRLSITRDTSKSQVSLSLSSVTTEDMAMYYCARGYLSGVHYAWGRGLLVTVSSEGKSSGASGESKVDDRVVRTQPSSVSKSLGQSVSITCSGSSSNVGAGNYVGWFQQVPGSAPKLLIYGATNRASGVPARFSGSKSGVTATLTITSLQAEDEADYYCASIDTSRSHIFGSGTRLTVLG
modifications: E2A6 amino acid sequence
B3: ME12: sheep-derived anti-tau clone, CDRs in Table 1 (protein)
CDR 1: SNAVG
CDR 2: GCSSDGKCYHNSALKS
CDR 3: GFYSIYGYDYSGTIDY
CDR 4: SGSSSNVGGGNSVG
CDR 5: NTNSRPS
CDR 6: VTGDSSTHDDL
modifications: VHCDR1 ME12, NS3D9; VHCDR1 S1D2, S1H6, S2C3; VHCDR1 MC5, MD12; VHCDR1 3aA6, VHCDR1 CE3; VHCDR2 ME12; VHCDR3 ME12; VLCDR1 S1D12, ME12; VLCDR2 ME12; VLCDR3 ME12
B4: NS1G7: anti-tau clone, Table 10; SEQ ID NO: 374 (protein)
scFv: QVQLQESGPSLVKPSQTLSLTCTVSGFSLTSYGVGWVRQAPGKTLEWISSISSGGTTFYNPALKSRLSITRDTSESQVSLSLSSVTTEDTAVYYCTRDVHIYYNDYGAAYGDRDYWGPGLLVTVSSEGKSSGASGESKVDDQAVVTQPPSVSGSPGQRVSITCSGSSSNIGGGNYVSWYQQLPGSGLRTLIYGTTSRASGVPDRFSGSGSGNTATLTISSLQAEDEADYYCASYDTNSGSVFGSGTRLTVLG
modifications: NS1G7 amino acid sequence
B5: S1F4: anti-tau clone, Table 2; SEQ ID NO: 414 (protein)
scFv: QVQLQESGPSLVKPSQTLSLTCTVSGFSLSSNSVGWVRQAPGKAPEWVAGIDTDGEEGYNPALNSRLSITRDTSKSQVSLSLSSVTSEDTAVYYCVRSYRADGLAYGYVQAIDYWGPGLLLTISSEGKSSGASGESKVDDQAVVTQPSSVSGSLGQRVSITCSGSFIGISSVGWFQQLPGSGLRTVIVASDGRPSGVPDRFSNSKSGNTATLTISSLQAEDEADYFCGSSDRTQYTGVFGSGTRLTVLG
modifications: S1F4 amino acid sequence
B6: S1B1: anti-tau clone, Table 2; SEQ ID NO: 412 (protein)
scFv: B5 scFv with A101T, L121V, I123V, V144L
modifications: S1B1 amino acid sequence
B7: S1D9: anti-tau clone, Table 2; SEQ ID NO: 413 (protein)
scFv: QVQLQESGPSLVKPSQTLSLTCTVSGFSLTSNSVGWVRQAPGKAPEWVAGIDSDGEEGYNPALNSRLSITRDTSKNQVSLSLSRVTSEDTAVYYCGRTYRTDGYAYGYVQAIDYWGPGLLVTVSSEGKSSGASGESKVDDRVMLTQPPSVSGSPGQTVSITCSGSFIGISSVGWFQQLPGSGLRTVIFASDGRPSGVPDRFSNSKSGNTATLTISSLQAEDEADYFCGSSDRTQYTGVFGSGTRLTVLS
modifications: S1D9 amino acid sequence
B8: S2C6: anti-tau clone, Table 2; SEQ ID NO: 416 (protein)
scFv: QVQLQESGPSLVKPSQTLSLTCTVSGFSLISNSVGWVRQAPGKAPEWVAGIDTDGEEGYNPALKSQYAASDPDTSKSQVSLSLSSVTSEDTAVYYCGRTYRTDGFAYGYVQAIDYWGPGLLLTISSEGKSSGASGESKVDDQAVLTQPSSVSGSLGQRVSITCSGSFIGISSVGWFQQLPGSGLRTIIVASDGRPSGVPDRFSMSKSGNTATLTISSLQAEDEADYFCGSSDRTQYTGVFGSGTRLTVLG
modifications: S2C6 amino acid sequence
B9: CA7: anti-tau clone, Table 10; VH SEQ ID NO: 503, VL 504 (antibody, V domains shown)
VH: RVRLQGSGPSLVKPSQTLSLTCTVSGFSFDSYYVGWVRQAPGKALEWLGNIYSTGRAFYNPALKSRLSITRDTSKSQVSLSVSSVTIEDTALYYCVRGSYYHGGGNGMVDFFDYWSPGLLVTVSS
VL: QVVRTQPSSVSGSLGQRVSITCSGSSSNVGYGNYVGWFQQVPGSAPKLLIYAATSRASGVPDRFSGSRSGNTATLTIDSLQAEDEADYYCSSYQRGNTGVFGSGTRLTVLG
modifications: CA7 VH Domain; CA7 VL Domain
B10: 412E10: C-terminal anti-tau clone, Table 5; SEQ ID NO: 147 (protein)
chain: QVQLQESGPSLVKPSQTLSLTCTVSGFSVISDSVAWVRQAPGKVPEWLGASGSSGNKYYNPALKSRLSITRDTSKSQVSLSLSSVTTEDTAVYYCARGIIAGVDVWGRGLLVTVSSEGKSSGASGESKVDDQAVLTQPSSVSGSLGQRVSITCSGSSSNVGYGNYVGWYQQVPGSAPKLLIYGTAIRASGVPDRFSGSRSGDTATLTITSLQAEDEADYYCASYQSNYAFFGSGTRLTVLG
modifications: 412E10 amino acid sequence
B11: 412E6: C-terminal anti-tau clone, Table 5; sequence in b349 (protein)
scAb: QVQLQESGPSLVKPSETLSLTCTVSGFSLTNYGVGWVRQAPGKALEWLGNIYSGGSTYYNPALKSRLSITRDTSKSQVSLSLNSVTLEDTAVYYCGRGGVGSVDVWGPGLLVTVSSEGKSSGASGESKVDDQAVLTQPPSVSGSPGQRVSITCSGGRNNIGRGTFVDWYQQLPGSGLKTVIYGTDRRPPGVPDRFSGSKTGNAATLTITSLQAEDEADYWCATYDYSNDMIILGSGTRLTVLG
B12: 412B9: C-terminal anti-tau clone, Table 5; SEQ ID NO: 417 (protein)
chain: QVQLQESGPSLVKPSQTLSLTCTVSGFSVISDSVAWVRQAPGKVPEWLGASGSSGNKYYNPALKSRLSITRDTSKSQVSLSLSSVTTEDTAVYYCARGIIAGVDVWGRGLLVSVSSEGKSSGASGESKVDDQAVLTQPSSVSGALGQRVSITCSGSSSNVGYGDYVGWYQQVPGSAPKLLIYGAASRASGVPDRFSGSRSGNTATLTISSLQAEDEADYYCASYDSSDGGVFGSGTRLTVLG
modifications: 412B9 amino acid sequence
B13: 412G11: C-terminal anti-tau clone, Table 5; SEQ ID NO: 434 (protein)
chain: QVRLQESGPSLVKPSQTLSLTCTVSGFSLTSYALGWVRQAPGRAPEWIGNIWRGGRIEYNPALKSRLSITRDTSKSQVSLSLSSVTTEDTAVYYCSRSGGDWGPGLLVTVSSEGKSSGASGESKVDDQAVLTQPSSVSGSLGQRVSITCSGSSSNVGYGNYVGWYQQVPGSAPKLLIYGATSRASGVPDRFSGSRSENTATLTISSLQAEDEADYYCASYDRSESVVFGSGTRLTVLG
modifications: 412G11 amino acid sequence

Test system: hT40, dGA, dGAE and truncated tau fragments
Test: Binding ELISA / epitope mapping of anti-tau scAbs with truncated tau proteins and 13mer peptides
Design: species or system human
Settings: ELISA, 'E' group scAbs
Description: A series of binding ELISA was performed using various truncated versions of the tau protein and 13mer peptide libraries spanning the entire hT40 molecule for mapping the epitopes of anti-tau scAbs (Full list of protein antigens used is given in Table 14). In general, ELISA plates were coated with 1 μg/ml hT40 or dGA or dGAE or other truncated versions of the protein and in the case of biotinylated peptides, plates were coated with 5 μg/ml Streptavidin followed by 1 μg/ml biotinylated peptide. The plates were blocked with 2% MPBS and scAb samples added at desired starting concentrations and double diluted across the plate. Binding was detected using anti-Human C Kappa HRP conjugated secondary antibody and the resulting immunoreaction was developed and absorbance values measured as described above.
Selected E specific scAbs and their specific binding to dGAE is shown below (FIG. 8A-E).
Similarly, dGA binding ‘NS’, ‘S’ and ‘M’ group scAbs were subjected to further antigen binding ELISA using shorter tau proteins and biotinylated 13mer peptides as shown below (FIG. 10A-F) and (FIG. 11A-R).

Row | cross-reactivity using hT40, dGA and dGAE antigens | Molecule
1 | specific dGAE binding | B1

Same assay, conditions: Table 15; binding ELISA; residue numbers of hT40

Row | Tau proteins/fragments with positive scAb reactivity | Molecule
2 | 297-391 (dGAE) | B1
3 | 297-391 (dGAE) | B2

Same assay, conditions: Table 16; NS, S and M clones; binding ELISA

Row | Molecule | Tau proteins/fragments with positive scAb reactivity
4 | B3 | hT40, 297-390 (dGA), 297-391 (dGAE), 341-353, 337-349, 339-351
5 | B4 | hT40, 297-390 (dGA), 297-391 (dGAE), 275-305, 337-368
6 | B5 | hT40, 297-390 (dGA), 297-391 (dGAE), 369-390, 369-391
7 | B6 | hT40, 297-390 (dGA), 297-391 (dGAE)
8 | B7 | hT40, 297-390 (dGA), 297-391 (dGAE)
9 | B8 | hT40, 297-390 (dGA), 297-391 (dGAE), 369-390, 369-391

Same assay, conditions: Table 16; NS, S and M clones; incl. 13mer peptides

Row | Shortest region bound on hT40 | Molecule
10 | 337-355 | B3
11 | 367-379 | B5
12 | 367-379 | B6
13 | 367-379 | B7
14 | 367-379 | B8

Same assay, conditions: Table 17; 'C' group scAbs; binding ELISA

Row | Tau proteins/fragments with positive scAb reactivity | Molecule
15 | hT40, 1-319 | B9

Same assay, conditions: Table 17; 'C' group scAbs; incl. 13mer peptides

Row | Shortest region bound on hT40 | Molecule
16 | 1-319 | B9

Same assay, conditions: Table 28 (LoD table); residues of hT40

Row | Detection scAb (Epitope) | Molecule
17 | 412E10 (412-441) | B10

Same assay, conditions: residue numbers of SEQ ID NO: 1 (hT40); CDR Tables 1-11

Row | Epitope | Molecule
18 | 337-355 | B3
19 | 367-379 | B5
20 | 367-379 | B6
21 | 412-441 | B11
22 | 412-441 | B12
23 | 367-379 | B7
24 | 412-441 | B13
25 | 412-441 | B10
26 | 367-379 | B8
27 | 1-319 | B9
